The assay has as its target T1, RGA4 1-171:CFP (rice, UniProt F7J0M4 1-171).
T1 construct: not shown: C-terminal CFP tag
T1 sequence (looked up): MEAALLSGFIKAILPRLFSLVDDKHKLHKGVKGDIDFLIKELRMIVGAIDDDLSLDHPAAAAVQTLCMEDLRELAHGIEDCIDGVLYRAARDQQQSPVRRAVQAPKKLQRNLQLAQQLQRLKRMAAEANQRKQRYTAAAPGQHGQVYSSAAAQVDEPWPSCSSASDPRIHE
Kind of assay: co-immunoprecipitation with anti-GFP antibodies from N. benthamiana leaf cells, anti-HA immunoblot. A general note: In western blotting, separated proteins are transferred to a membrane and probed.

B1: Sr50 1-163:HA (other)
chain: MNIVTGAMGSLIPKLGELLMDEYKLHKRIKKDVEFLKKELESMHAALIKVGEVPRDQLDRQVKLWADEVRELSYNMEDVVDKFLVRVDGDGIQQPHDNSGRFKELKNKMIGLFKKGRNHHRIADAIKEIKEQLQEVAARRDRNKVAVPNPMEPITIDPCLRAL
notes: Transiently expressed in N. benthamiana leaf cells under the 35S promoter; also called full CC domain of Sr50 fused to a C-terminal HA tag; not shown: C-terminal HA tag (vector pBIN19-35S::GTW:3HA)
Consider B1, for which the binding result is reported as “no binding”.

B2: Sr33 1-160:HA (other)
chain: MDIVTGAIAKLIPKLGELLVGEYKLHKGVKKNIEDLLKELKTMNAALIKIGEVPPDQLDSQDKLWADEVRELSYVIEDAVDKFLVRVHGVEPDDNTNGFKGLMKRTTKLLKKVVDKHGIAHAIKDIKKELQEVAARRDRNKFDGIASIPTEAIDPRLRAL
notes: also called full CC domain of Sr33 fused to a C-terminal HA tag; not shown: C-terminal HA tag (vector pBIN19-35S::GTW:3HA)
On to B2, for which the binding result was “no binding”.

(Values after US20200270627A1 (COMMONWEALTH SCIENTIFIC AND INDUSTRIAL RESEARCH ORGANISATION, published 2020).)
